Assay: yeast display, Sf9 membrane polyspecificity reagent, FACS + sequencing; frameworks hold sequencing errors
In short: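 Sorting gates, low and high (top ~1%), were placed on anti-HA fluorescence to track expression and on streptavidin fluorescence to track reagent binding. A clone's polyreactivity label is taken from the gate it came out of. The reagent was 10% biotinylated, detergent-solubilized Sf9 membrane, applied for 1 hour at 4 °C to galactose-induced yeast display cells.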

Row | Sequence | polyreactivity (PSR sort gate)
1 | QVQLVESGGGLVQAGGSLRLSCAASGRIFGTNAMGWYRPAPGKERELVADITSGGSTNYADSVKGRFTISRDNAKNTVYLQMNSLKPEDTAVYYCAAVLYSRLYWYRLDYWGQGTQVTVSS | low polyreactivity
2 | QVQLVESGGGLVQAGGSLRLSCAASGRIFGTNAMGWYRQAPGKERELVAAINGSDSSTYYADSVKGRFTISRDNAKNTVYLQMNSLKPEDTAVYYCAADWDFFQQGANGAPYDYWGQGTQVTVSS | low polyreactivity
3 | QVQLVESGGGLVQAGGSLRLSCAASGRIFGTNARVWYRQAPGKERELVADITSGGSTNYADSVKGRFTISRDNAKNTVYLQMNSLKPEDTAVYYCAADVIGDLRWYRDEYWGQGTQVTVSS | low polyreactivity
4 | QVQLVESGGGLVQAGGSLRLSCAASGRIFGTYAMGWYRQAPGKERELFAAITLSDGSTYYADSVKGRFTISRDNAKNTVYLEMNTLKPEDTAVYYCAAVVDRFHPGLYEYWGQGTQVTVSS | low polyreactivity
5 | QVQLVESGGGLVQAGGSLRLSCAASGRIFGTYAMGWYRQAPGKERELVAAISFRGGSTYYADTVNGRFTISRDNAKNTVYLQMNCLKPEDTAVYYCNARKRYSTDPGDYWGQGTQVTVSS | high polyreactivity
6 | QVQLVESGGGLVQAGGSLRLSCAASGRIFGTYAMGWYRQAPGKERELVAAITSSGGRTYYADSVKGRFTISRDNAKNTVYLQMNRLKPEDTAVYYCAAYPWYRMWGQGTQVTVSS | high polyreactivity
7 | QVQLVESGGGLVQAGGSLRLSCAASGRIFGTYAMGWYRQAPGKERELVDAISSSGTSTYYADSVKGRFTISRDNAKTTVYLQMNSLPPEDTAVYYCAVEAIDYAYAYYFRLGYDYWGQGTQVTVSS | low polyreactivity
8 | QVQLVESGGGLVQAGGSLRLSCAASGRIFGVNAMGGDRQAPGKERELVAVISSGGSTYYADSVKGRFTISRDNAKNTVYLQMNSLKPEDTAVYYCAAGYLPDYDYWGQGTQVTVSS | low polyreactivity
9 | QVQLVESGGGLVQAGGSLRLSCAASGRIFGVNAMGWYRQAPGKERELVAAINFSGGGTYYADSVKGRFTISRDNAKNTVYLQMTSLKPEDTAVYYCAADGPDYKWYYELDYWGQGTQVTVSS | low polyreactivity
10 | QVQLVESGGGLVQAGGSLRLSCAASGRIFGVNAMGWYRQAPGKERELVADISSGGSTYYADSVKGRFTISRDNAKNTVYLQMNSLKPEDTAVYYCAKAPRGRGLYDYWGQGTQVTVSS | low polyreactivity
11 | QVQLVESGGGLVQAGGSLRLSCAASGRIFGVYAMGWYRQAPGKERELVAAIDRRGGRTYYADSVKGRFTISRDNAKNTVYLQMNSLKPEDTAVYYCATARYRAEMGYWGQGTQVTVSS | high polyreactivity
12 | QVQLVESGGGLVQAGGSLRLSCAASGRIFGVYAMGWYRQAPGKERELVAAIDRRGGTTYYADSVKGRFTISRDNAKNTVYLQMNSLKPEDTAVYYCAARSYPFIATYGYWGQGTQVTVSS | high polyreactivity
13 | QVQLVESGGGLVQAGGSLRLSCAASGRIFGVYAMGWYRQAPGKERELVADISWSGSGTYADSVKGRFTISRDNAKNTVYLQMNSLKPEDTAVYYCNVDPAQIHAGYVGYDYWGQGTQVTVSS | low polyreactivity
14 | QVQLVESGGGLVQAGGSLRLSCAASGRIFGVYAMGWYRQAPGKERELVADISWSGSGTYADSVKGRFTISRDNAKNTVYLQMNSLKPEDTAVYYCNVDPAQIHSGYVGYDYWGQGTQVTVSS | low polyreactivity
15 | QVQLVESGGGLVQAGGSLRLSCAASGRIFGVYAMGWYRQSPGKERELVAPISRSGGRTYYADSVKGRFTISRDNAKNSDYLQMNSLKPEDTAVYYCNVVRWYYHPPLTGSRFDYWGQGTQVTVSS | high polyreactivity
16 | QVQLVESGGGLVQAGGSLRLSCAASGRIFGVYVMGWYRQAPGKETELVAAISWSGSHTYYADSVKGRFTISRDNAKNTVYLQMNSLKPEDTAVYYCNADSYPDYTGPGLDWYDYWGQGTQVTVSS | low polyreactivity
17 | QVQLVESGGGLVQAGGSLRLSCAASGRIFGWYAMGWSRQAPGKERELGAAITTADSTYYADSVKGRFTISRDNAKNTVYLQMNSLKPEDTAVYYCAADAYWEYDYWGQGTQVTVSS | low polyreactivity
18 | QVQLVESGGGLVQAGGSLRLSCAASGRIFGWYAMGWYRQAPGKERELVAAISSSGVSTNYADSVKGRFTISRDNAKNTVYLQMNSLKPEDTAVYYCIARGFYWYRPYVNSNGGYWGQGTQVTVSS | high polyreactivity
19 | QVQLVESGGGLVQAGGSLRLSCAASGRIFGYNAMGWYRQAPGKERELVAAIDYTGGSTYYADSVKGRFTISRDNAKNTVYLQMNSLKPEDTAVYYCAKDRTTPWEEDDYWGQGTQVTVSS | low polyreactivity
20 | QVQLVESGGGLVQAGGSLRLSCAASGRIFGYNAMGWYRQAPGKERELVAAITNGGSTNYADSVKGRFTISRDNAKNTVYLQMNSLKPEDTAVYYCAVKWYPPGHDYWGQGTQVTVSS | low polyreactivity
21 | QVQLVESGGGLVQAGGSLRLSCAASGRIFGYNVMGWYIQAPGKERELVAAISWGTGSTYADSMKGRFTISRDNAKKTVYLQMNSLIPVDTAVYYCAADSFIPPYDHWGQGTQVTVSS | low polyreactivity
22 | QVQLVESGGGLVQAGGSLRLSCAASGRIFGYYAMGWSRQAPGKERELVATITFGGGSTYYADSVKGRFTISRDNAKNTVYFQMNSLKPEDTAVYYCAADSGYLGIYGDEYSWGQGTQVTVSS | low polyreactivity

Row | Sequence | polyreactivity (PSR sort gate)
23 | QVQLVESGGGLVQAGGSLRLSCAASGRIFGYYAMGWYIQAPGKERELVAAINWRGGNTNYADSVKGRFTISRDNAKNTVYLQMNSLKPEDTAVYYCNAQVLVRPIQGEYGYWGQGTQVTVSS | low polyreactivity
24 | QVQLVESGGGLVQAGGSLRLSCAASGRIFGYYAMGWYRQAPGKERELVAAISSRGSRTYYADSVKGRFTISRDNAKNTVYLQMNSLKPVDTAVYYCATYDYWGQGTQVTVSS | high polyreactivity
25 | QVQLVESGGGLVQAGGSLRLSCAASGRIFGYYAMGWYRQAPGKERELVAAISSSGGSTYYADSVKGRFTISRDNAKNTVYLQMNSLKPEDTAVYYCAREFSDGLSGKFDYWGQGTQVTVSS | low polyreactivity
26 | QVQLVESGGGLVQAGGSLRLSCAASGRIFGYYAMGWYRQAPGKERELVAAISTRGTSTYYADSVKGRFTISRDNAKNTVYLQMNSLKPEDTAVYYCARGFPPYRGTHMNYWGQGTQVTVSS | high polyreactivity
27 | QVQLVESGGGLVQAGGSLRLSCAASGRIFGYYAMGWYRQAPGKERELVAAISYSTGGTSTYADSVKGRFTISRDNAKNTVYLQMNSLKPDDTAVYYCAKRIFTSARLNYWGQGTQVTVSS | high polyreactivity
28 | QVQLVESGGGLVQAGGSLRLSCAASGRIFGYYAMGWYRQAPGKERELVAPITKTVGGTYYADSVKGRFTISRDNAKNTVYLQMNSLKPEDTAVYYCAARVWTGNGRSKGAYDYWGQGTQVTVSS | high polyreactivity
29 | QVQLVESGGGLVQAGGSLRLSCAASGRIFGYYAMGWYRQAPGKESELVARISSSGGSTYYADSVKGRFTISRDNAKNTVYLQMNSLKPEDTAVYYCNTASNRSPGWRAEFDYWGQGTQVTVSS | low polyreactivity
30 | QVQLVESGGGLVQAGGSLRLSCAASGRIFGYYARGWYRQAPGKEREFVAGITQRTDSTYYADSVKGRFTISRDNAKNTVYLQMNSLKPEDTAVYYCAARGYGGYHWGYYWGQGTQVTVSS | high polyreactivity
31 | QVQLVESGGGLVQAGGSLRLSCAASGRIFGYYTMGWYRQAPGKERELVAAISSGGTTYYADSVKGRFTISRDNAKNTVYLQMNSLKPEDTAVYYCAADYYNTYGYDYWGQGTQVTVSS | low polyreactivity
32 | QVQLVESGGGLVQAGGSLRLSCAASGRIFGYYTMGWYRQAPGKERELVADSSGGNTSYADSVKGRFTISRDNAKNTVYLQMNSLKPEDTAVYYCAKDLPGAWRGDDYWGQGTQVTVSS | low polyreactivity
33 | QVQLVESGGGLVQAGGSLRLSCAASGRIFHANAMGWSRQAPGKERELVAGISRNGGRTYYADSVKGRFTISRDNAKNTVYLQMNSLKPEDTAVYYCNALHWQSKELDYFWGQGTQVTVSS | high polyreactivity
34 | QVQLVESGGGLVQAGGSLRLSCAASGRIFHGYAMGWYRQAPGKERELVAAISATGGSTYYADSVKGRFTISRDNAKNTVYLQMNSLKPEDTAVYYCARTNFYRSYDPGGRFYNYDYWGQGTQVTVSS | low polyreactivity
35 | QVQLVESGGGLVQAGGSLRLSCAASGRIFHGYAMGWYRQAPGKERELVAAISSGGRTNYADSVKGRFTISRDNAKNTVYLQMNSLKPEDTAVYYCAAETQWYVRSRTLFYRYDYWGQGTQVTVSS | high polyreactivity
36 | QVQLVESGGGLVQAGGSLRLSCAASGRIFHPYAMGWYRPAPGKERELVAAITNSGGITYADSVKGRFTISRDNAKNTVYLQMNSLKPEDTSVYYCNTATNRFHYKYRKPYDYWGQGTQVTVSS | low polyreactivity
37 | QVQLVESGGGLVQAGGSLRLSCAASGRIFHRNAMGWYRPAPGKERELVATIRGNGGSTYYADSVKGRFTISRDNAKNTVYLQMNSLKPEDTAVYYCARDAQGYGGWWTYSRFYSWGQGTQVTVSS | high polyreactivity
38 | QVQLVESGGGLVQAGGSLRLSCAASGRIFHRYAMGWYRQAPGKERELVASISRGDSTNYADSVKGRFTISRDNAKNTVYLQMNSLKPEDTAVYYCAARSFTRYRYYYWGQGTQVTVSS | high polyreactivity
39 | QVQLVESGGGLVQAGGSLRLSCAASGRIFHRYAMGWYRQAPGKERELVASISRGDSTNYADSVKGRFTISRDNAKNTVYLQMNSLKPEDTAVYYCAAVPRRSGHQRWGATYYYWGQGTQVTVSS | high polyreactivity
40 | QVQLVESGGGLVQAGGSLRLSCAASGRIFHSYTMGWYRQAPGKERELVAAINWSGTRTYYADSVKGRFTISRDNAKNTVYLQMNSLKPEDTAVYYCNRVGVTRSYRYDYWGQGTQVTVSS | high polyreactivity
41 | QVQLVESGGGLVQAGGSLRLSCAASGRIFHSYVMGWYRQAPGKERELVARISSGGRTNYADSVKGRFTISRDNAKNSVYLQMNSLKPEDTAVYYCAATRLYPRSRYDYWGQGTQVTVSS | high polyreactivity
42 | QVQLVESGGGLVQAGGSLRLSCAASGRIFHTYGRRWSRQAPGKEREFVAAITWTGGSTYYADSVKGRFTISRDNAKNTFYLQMNSLKPEDTAVYYCAADYPRDIIGSMDYWGQGTQVTVSW | low polyreactivity
43 | QVQLVESGGGLVQAGGSLRLSCAASGRIFHVNAMGWYRQAPGKERELVATITTSGGTTYYADSVKGRFTISRDKAKNTVYLQMNSLKPEDTAVYYCAAKFPRQYSSRYNYWGQGTQVTVSS | low polyreactivity

Source: the nanobody polyreactivity screen of Harvey et al. (2022)
